Data taken from publication PMC8595303, “Dramatic activation of an antibody by a single amino acid change in framework” (Scientific Reports, 2021).

What was measured:
[1] = molecular target: T1, human mature TGFβ2 (PeproTech) (Homo sapiens, UniProt P61812); experiment: cell-based or functional assay
human mature TGFβ3 [2] = molecular target: T2, human mature TGFβ3 (Homo sapiens, UniProt P10600); experiment: cell-based or functional assay
human mature TGFβ1 = molecular target: T3, human mature TGFβ1 (Homo sapiens, UniProt P01137); experiment: SPR; Biacore T200; antibody captured on a Protein A sensor chip (about 90 RU); mature TGFβ isoform injected, five-fold dilutions 0.008 nM to 5 nM; HBS-EP pH 7.4, 150 mM NaCl; 37 °C; 100 μl/min; 3 min association, 60 min dissociation; one-to-one Langmuir model, global fit; settings: both partners purified
T3 construct: Transforming Growth Factor-beta 1, human, mature form (cut from the precursor); also called TGFb1; source: bought: PeproTech

[3] = molecular target: T1, human mature TGFβ2 (PeproTech); experiment: as above; settings: both partners purified
human mature TGFβ3 [4] = molecular target: T2, human mature TGFβ3; experiment: as above; settings: both partners purified

T2 sequence (P10600 301-412): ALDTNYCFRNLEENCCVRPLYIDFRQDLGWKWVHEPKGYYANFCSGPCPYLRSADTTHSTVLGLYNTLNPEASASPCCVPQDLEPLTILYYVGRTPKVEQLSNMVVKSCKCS
T3 sequence (P01137 279-390): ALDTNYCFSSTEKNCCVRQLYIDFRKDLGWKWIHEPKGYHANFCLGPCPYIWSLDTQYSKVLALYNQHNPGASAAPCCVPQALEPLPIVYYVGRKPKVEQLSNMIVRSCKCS
T1 sequence (P61812 303-414): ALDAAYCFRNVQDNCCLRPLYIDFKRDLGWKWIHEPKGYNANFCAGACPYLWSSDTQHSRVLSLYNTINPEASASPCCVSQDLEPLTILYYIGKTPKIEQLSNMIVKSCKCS

| Binder | TGFβ inhibition by HEK-Blue cells (IC50: nM), TGFb2; Blocking: Incomplete [1] | TGFβ inhibition by HEK-Blue cells (IC50: nM), TGFb3; Blocking: Incomplete (human mature TGFβ3 [2]) | Kd (human mature TGFβ1) | binding result (human mature TGFβ1) | Kd [3] | Kd (human mature TGFβ3 [4]) | TGFβ inhibition by HEK-Blue cells (IC50: nM), TGFb2; Blocking: Complete [1] | TGFβ inhibition by HEK-Blue cells (IC50: nM), TGFb3; Blocking: Complete (human mature TGFβ3 [2]) |
| --- | --- | --- | --- | --- | --- | --- | --- | --- |
| h4A11.v7.1 (antibody, V domains shown, as the VH of m12 (h4A11.v7); numbers count on: Kabat numbering of the heavy chain; as the VL of m12 (h4A11.v7); human IgG1; also called v7.1_S19R, S79Y; source: Expi293F, transient, purified (Protein A, SEC)) VH: EQQLQESGPGLVKPSETLRLTCTVTGFSLSSYTVNWVRQPAGKGLEWIGYISYGGSAYYASWANGRFTISKDSSKNQVYLKLSSVTAADTAVYFCARHMQVGGAPTGSMAAFDPWGPGTLVTVSS VL: EAVLTQSPGTLSLSPGERATLSCQSSQSVYNNNYLSWFQQKPGQPPRLLIYGASTLTSGVPDRFSGSGSGTDFTLTISRLEPEDFAVYYCAGGYSGSSDKYAFGGGTKVEIK | > 667 nM | > 667 nM | > 5 nM | no binding (tested: 5 nM) | 0.0107 nM | 0.0405 nM |  |  |
| h4A11.v7.4 (antibody, V domains shown, as the VH of m12 (h4A11.v7); numbers count on: Kabat numbering of the heavy chain; as the VL of m12 (h4A11.v7); human IgG1; also called v7.4_S19R, S79Y, K81R; source: Expi293F, transient, purified (Protein A, SEC)) VH: EQQLQESGPGLVKPSETLRLTCTVTGFSLSSYTVNWVRQPAGKGLEWIGYISYGGSAYYASWANGRFTISKDSSKNQVYLRLSSVTAADTAVYFCARHMQVGGAPTGSMAAFDPWGPGTLVTVSS VL: EAVLTQSPGTLSLSPGERATLSCQSSQSVYNNNYLSWFQQKPGQPPRLLIYGASTLTSGVPDRFSGSGSGTDFTLTISRLEPEDFAVYYCAGGYSGSSDKYAFGGGTKVEIK | > 667 nM | > 667 nM | > 5 nM | no binding (tested: 5 nM) | 0.0112 nM | 0.0188 nM |  |  |
| h4A11.v7.3 (antibody, V domains shown, as the VH of m12 (h4A11.v7); numbers count on: Kabat numbering of the heavy chain; as the VL of m12 (h4A11.v7); human IgG1; also called v7.3_S19R, S79Y, K81Q; source: Expi293F, transient, purified (Protein A, SEC)) VH: EQQLQESGPGLVKPSETLRLTCTVTGFSLSSYTVNWVRQPAGKGLEWIGYISYGGSAYYASWANGRFTISKDSSKNQVYLQLSSVTAADTAVYFCARHMQVGGAPTGSMAAFDPWGPGTLVTVSS VL: EAVLTQSPGTLSLSPGERATLSCQSSQSVYNNNYLSWFQQKPGQPPRLLIYGASTLTSGVPDRFSGSGSGTDFTLTISRLEPEDFAVYYCAGGYSGSSDKYAFGGGTKVEIK | > 667 nM | > 667 nM | > 5 nM | no binding (tested: 5 nM) | 0.0057 nM | 0.008 nM |  |  |
| h4A11.v7.6 (antibody, V domains shown, as the VH of m12 (h4A11.v7); numbers count on: Kabat numbering of the heavy chain; as the VL of m12 (h4A11.v7); human IgG1; also called v7.6_S19R, S79W, K81R; source: Expi293F, transient, purified (Protein A, SEC)) VH: EQQLQESGPGLVKPSETLRLTCTVTGFSLSSYTVNWVRQPAGKGLEWIGYISYGGSAYYASWANGRFTISKDSSKNQVWLRLSSVTAADTAVYFCARHMQVGGAPTGSMAAFDPWGPGTLVTVSS VL: EAVLTQSPGTLSLSPGERATLSCQSSQSVYNNNYLSWFQQKPGQPPRLLIYGASTLTSGVPDRFSGSGSGTDFTLTISRLEPEDFAVYYCAGGYSGSSDKYAFGGGTKVEIK | > 667 nM | > 667 nM | > 5 nM | no binding (tested: 5 nM) | 0.0097 nM | 0.0156 nM |  |  |
| h4A11.v2.5 (antibody, V domains shown, as the VH of m7 (h4A11.v2) with the stated changes; numbers count on: Kabat numbering of the heavy chain; as the VL of m7 (h4A11.v2); human IgG1; also called v2.5_ R19S, Q81S; source: Expi293F, transient, purified (Protein A, SEC)) VH: EQQLVESGGGLVQPGGSLSLSCAVSGFSLSSYTVNWVRQAPGKGLEWIGYISYGGSAYYASWANGRFTISKDSAKNSVYLSMNSLRAEDTAVYFCARHMQVGGAPTGSMAAFDPWGPGTLVTVSS VL: DAQLTQSPSSLSASVGDRVTITCQSSQSVYNNNYLSWFQQKPGKPPKLLIYGASTLTSGVPSRFSGSGSGTDFTLTISSLQPEDFATYYCAGGYSGSSDKYAFGGGTKVEIK |  |  | > 5 nM | no binding (tested: 5 nM) | 0.0017 nM | 0.0006 nM | 0.7 nM | 0.1 nM |
| h4A11.v2.3 (antibody, V domains shown, as the VH of m7 (h4A11.v2) with the stated change; numbers count on: Kabat numbering of the heavy chain; as the VL of m7 (h4A11.v2); human IgG1; also called v2.3_Q81A; source: Expi293F, transient, purified (Protein A, SEC)) VH: EQQLVESGGGLVQPGGSLRLSCAVSGFSLSSYTVNWVRQAPGKGLEWIGYISYGGSAYYASWANGRFTISKDSAKNSVYLAMNSLRAEDTAVYFCARHMQVGGAPTGSMAAFDPWGPGTLVTVSS VL: DAQLTQSPSSLSASVGDRVTITCQSSQSVYNNNYLSWFQQKPGKPPKLLIYGASTLTSGVPSRFSGSGSGTDFTLTISSLQPEDFATYYCAGGYSGSSDKYAFGGGTKVEIK |  |  | > 5 nM | no binding (tested: 5 nM) | 0.0034 nM | 0.0055 nM | 1.7 nM | 0.7 nM |
| h4A11.v2.6 (antibody, V domains shown, as the VH of m7 (h4A11.v2) with the stated changes; numbers count on: Kabat numbering of the heavy chain; as the VL of m7 (h4A11.v2); human IgG1; also called v2.6_ R19S, Y79S, Q81S; source: Expi293F, transient, purified (Protein A, SEC)) VH: EQQLVESGGGLVQPGGSLSLSCAVSGFSLSSYTVNWVRQAPGKGLEWIGYISYGGSAYYASWANGRFTISKDSAKNSVSLSMNSLRAEDTAVYFCARHMQVGGAPTGSMAAFDPWGPGTLVTVSS VL: DAQLTQSPSSLSASVGDRVTITCQSSQSVYNNNYLSWFQQKPGKPPKLLIYGASTLTSGVPSRFSGSGSGTDFTLTISSLQPEDFATYYCAGGYSGSSDKYAFGGGTKVEIK |  |  | > 5 nM | no binding (tested: 5 nM) | 0.0019 nM | 0.0005 nM | 1.7 nM | 0.3 nM |

Next, values leading:

| TGFβ inhibition by HEK-Blue cells (IC50: nM), TGFb2; Blocking: Incomplete [1] | TGFβ inhibition by HEK-Blue cells (IC50: nM), TGFb3; Blocking: Incomplete (human mature TGFβ3 [2]) | Kd (human mature TGFβ1) | binding result (human mature TGFβ1) | Kd [3] | Kd (human mature TGFβ3 [4]) | TGFβ inhibition by HEK-Blue cells (IC50: nM), TGFb2; Blocking: Complete [1] | TGFβ inhibition by HEK-Blue cells (IC50: nM), TGFb3; Blocking: Complete (human mature TGFβ3 [2]) | Binder |
| --- | --- | --- | --- | --- | --- | --- | --- | --- |
| > 667 nM | > 667 nM | > 5 nM | no binding (tested: 5 nM) | 0.0096 nM | 0.0228 nM |  |  | h4A11.v7.2 (antibody, V domains shown, as the VH of m12 (h4A11.v7); numbers count on: Kabat numbering of the heavy chain; as the VL of m12 (h4A11.v7); human IgG1; also called v7.2_S19R, S79W; source: Expi293F, transient, purified (Protein A, SEC)) VH: EQQLQESGPGLVKPSETLRLTCTVTGFSLSSYTVNWVRQPAGKGLEWIGYISYGGSAYYASWANGRFTISKDSSKNQVWLKLSSVTAADTAVYFCARHMQVGGAPTGSMAAFDPWGPGTLVTVSS VL: EAVLTQSPGTLSLSPGERATLSCQSSQSVYNNNYLSWFQQKPGQPPRLLIYGASTLTSGVPDRFSGSGSGTDFTLTISRLEPEDFAVYYCAGGYSGSSDKYAFGGGTKVEIK |
| > 667 nM | > 667 nM | > 5 nM | no binding (tested: 5 nM) | 0.0056 nM | 0.0072 nM |  |  | h4A11.v7.5 (antibody, V domains shown, as the VH of m12 (h4A11.v7); numbers count on: Kabat numbering of the heavy chain; as the VL of m12 (h4A11.v7); human IgG1; also called v7.5_S19R, S79W, K81Q; source: Expi293F, transient, purified (Protein A, SEC)) VH: EQQLQESGPGLVKPSETLRLTCTVTGFSLSSYTVNWVRQPAGKGLEWIGYISYGGSAYYASWANGRFTISKDSSKNQVWLQLSSVTAADTAVYFCARHMQVGGAPTGSMAAFDPWGPGTLVTVSS VL: EAVLTQSPGTLSLSPGERATLSCQSSQSVYNNNYLSWFQQKPGQPPRLLIYGASTLTSGVPDRFSGSGSGTDFTLTISRLEPEDFAVYYCAGGYSGSSDKYAFGGGTKVEIK |
|  |  | > 5 nM | no binding (tested: 5 nM) | 0.0022 nM | 0.0006 nM | 0.7 nM | 0.1 nM | h4A11.v2.1 (antibody, V domains shown, as the VH of m7 (h4A11.v2) with the stated change; numbers count on: Kabat numbering of the heavy chain; as the VL of m7 (h4A11.v2); human IgG1; also called v2.1_R19S; source: Expi293F, transient, purified (Protein A, SEC)) VH: EQQLVESGGGLVQPGGSLSLSCAVSGFSLSSYTVNWVRQAPGKGLEWIGYISYGGSAYYASWANGRFTISKDSAKNSVYLQMNSLRAEDTAVYFCARHMQVGGAPTGSMAAFDPWGPGTLVTVSS VL: DAQLTQSPSSLSASVGDRVTITCQSSQSVYNNNYLSWFQQKPGKPPKLLIYGASTLTSGVPSRFSGSGSGTDFTLTISSLQPEDFATYYCAGGYSGSSDKYAFGGGTKVEIK |
|  |  | > 5 nM | no binding (tested: 5 nM) | 0.0014 nM | 0.0006 nM | 2.2 nM | 0.2 nM | h4A11.v2.4 (antibody, V domains shown, as the VH of m7 (h4A11.v2) with the stated changes; numbers count on: Kabat numbering of the heavy chain; as the VL of m7 (h4A11.v2); human IgG1; also called v2.4_ R19S, Y79S; source: Expi293F, transient, purified (Protein A, SEC)) VH: EQQLVESGGGLVQPGGSLSLSCAVSGFSLSSYTVNWVRQAPGKGLEWIGYISYGGSAYYASWANGRFTISKDSAKNSVSLQMNSLRAEDTAVYFCARHMQVGGAPTGSMAAFDPWGPGTLVTVSS VL: DAQLTQSPSSLSASVGDRVTITCQSSQSVYNNNYLSWFQQKPGKPPKLLIYGASTLTSGVPSRFSGSGSGTDFTLTISSLQPEDFATYYCAGGYSGSSDKYAFGGGTKVEIK |
|  |  | > 5 nM | no binding (tested: 5 nM) | 0.0045 nM | 0.006 nM | 2.2 nM | 0.4 nM | h4A11.v2.2 (antibody, V domains shown, as the VH of m7 (h4A11.v2) with the stated change; numbers count on: Kabat numbering of the heavy chain; as the VL of m7 (h4A11.v2); human IgG1; also called v2.2_Q81N; source: Expi293F, transient, purified (Protein A, SEC)) VH: EQQLVESGGGLVQPGGSLRLSCAVSGFSLSSYTVNWVRQAPGKGLEWIGYISYGGSAYYASWANGRFTISKDSAKNSVYLNMNSLRAEDTAVYFCARHMQVGGAPTGSMAAFDPWGPGTLVTVSS VL: DAQLTQSPSSLSASVGDRVTITCQSSQSVYNNNYLSWFQQKPGKPPKLLIYGASTLTSGVPSRFSGSGSGTDFTLTISSLQPEDFATYYCAGGYSGSSDKYAFGGGTKVEIK |
